Laboratory results reported in PMC4081085.

Experiments:
Assay in all cases: fluorescence polarization
PARP-2 WT = conditions: none, FP: 5 nM labeled DNA, 30 min, RT, PARP-1/-2 buffer per cited ref 19, PARP-3 in 12 mM HEPES pH 8.0, 30 mM KCl (low) or 60 mM KCl (intermediate), 0.12 mM EDTA
PARP-2 W138A = conditions: 5' phosphate on one strand, FP: 5 nM labeled DNA, 30 min, RT, PARP-1/-2 buffer per cited ref 19, PARP-3 in 12 mM HEPES pH 8.0, 30 mM KCl (low) or 60 mM KCl (intermediate), 0.12 mM EDTA
dNTR-PARP-2 = conditions: 5' phosphate on one strand, FP: 5 nM labeled DNA, 30 min, RT, PARP-1/-2 buffer per cited ref 19, PARP-3 in 12 mM HEPES pH 8.0, 30 mM KCl (low) or 60 mM KCl (intermediate), 0.12 mM EDTA
PARP-2 R140A = conditions: 5' phosphate on one strand, FP: 5 nM labeled DNA, 30 min, RT, PARP-1/-2 buffer per cited ref 19, PARP-3 in 12 mM HEPES pH 8.0, 30 mM KCl (low) or 60 mM KCl (intermediate), 0.12 mM EDTA
PARP-2 N116A = conditions: 5' phosphate on one strand, FP: 5 nM labeled DNA, 30 min, RT, PARP-1/-2 buffer per cited ref 19, PARP-3 in 12 mM HEPES pH 8.0, 30 mM KCl (low) or 60 mM KCl (intermediate), 0.12 mM EDTA
PARP-2 Y188F = conditions: 5' phosphate on one strand, FP: 5 nM labeled DNA, 30 min, RT, PARP-1/-2 buffer per cited ref 19, PARP-3 in 12 mM HEPES pH 8.0, 30 mM KCl (low) or 60 mM KCl (intermediate), 0.12 mM EDTA
PARP-3 Y150F = conditions: 5' phosphate at nick, position 24, FP: 5 nM labeled DNA, 30 min, RT, PARP-1/-2 buffer per cited ref 19, PARP-3 in 12 mM HEPES pH 8.0, 30 mM KCl (low) or 60 mM KCl (intermediate), 0.12 mM EDTA
dNTR-PARP-3 = conditions: low ionic strength buffer?, 5' phosphate at nick, position 24, FP: 5 nM labeled DNA, 30 min, RT, PARP-1/-2 buffer per cited ref 19, PARP-3 in 12 mM HEPES pH 8.0, 30 mM KCl (low) or 60 mM KCl (intermediate), 0.12 mM EDTA
PARP-3 R103A = conditions: 5' phosphate at nick, position 24, FP: 5 nM labeled DNA, 30 min, RT, PARP-1/-2 buffer per cited ref 19, PARP-3 in 12 mM HEPES pH 8.0, 30 mM KCl (low) or 60 mM KCl (intermediate), 0.12 mM EDTA

Question: For 28-bp duplex 5'OH (non-phosphorylated), which binding signal (fold lower affinity than for 5'P DNA) (PARP-2 WT) is on record?
Answer: 2.5

Question: Which binding signal (% of WT affinity) (PARP-2 W138A) does the source give for 28-bp duplex 5'P (template 18) here?
Answer: 28

Question: And the binding signal (fold lower affinity than WT) (dNTR-PARP-2)?
Answer: 4

Question: What about the binding signal (% of WT affinity) (PARP-2 R140A) of the same substance?
Answer: 25

Question: And the binding signal (% of WT affinity) (PARP-2 N116A)?
Answer: 45

Question: And the binding signal (% of WT affinity) (PARP-2 Y188F)?
Answer: 7

Question: 47-bp duplex with 5'P nick (template 8) was tested. Which binding signal (% of WT affinity) (PARP-3 Y150F) did it give?
Answer: 54

Question: And the binding signal (fold lower affinity than WT) (dNTR-PARP-3)?
Answer: 3.5

Question: And the binding signal (% of WT affinity) (PARP-3 R103A)?
Answer: 25
